From publication PMC3744483, “Swiprosin-1 Is a Novel Actin Bundling Protein That Regulates Cell Spreading and Migration” (PLoS ONE, 2013) come the findings set out here.

T1: GST-tagged wild-type swiprosin-1 (human, UniProt Q96C19 1-240)
T1 construct: swiprosin-1, human, full length, in pGEX-4T-1; source: E. coli BL21, purified (glutathione beads, eluted with glutathione)
T1 sequence (looked up): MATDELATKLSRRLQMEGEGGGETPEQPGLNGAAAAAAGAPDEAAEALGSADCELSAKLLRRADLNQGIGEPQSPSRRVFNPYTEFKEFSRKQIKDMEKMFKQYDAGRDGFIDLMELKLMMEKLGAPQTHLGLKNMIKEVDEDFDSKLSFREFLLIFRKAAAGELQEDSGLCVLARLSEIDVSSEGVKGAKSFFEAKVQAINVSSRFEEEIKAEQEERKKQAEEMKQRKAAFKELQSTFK

B1: GST-tagged swiprosin-1 200–240 (domain or fragment, human, UniProt Q96C19 200-240, looked up)
chain: AINVSSRFEEEIKAEQEERKKQAEEMKQRKAAFKELQSTFK
notes: swiprosin-1, human, residues 200–240 (C-terminal coiled-coil region), in pGEX-4T-1; also called 200–240 (i); source: E. coli BL21, purified (glutathione beads, eluted with glutathione)
B2: His-tagged wild-type swiprosin-1 (natural protein, human, UniProt Q96C19 1-240, looked up)
chain: T1 sequence (looked up)
notes: swiprosin-1, human, full-length clone amplified from pOTB7 (RZPD), cloned into a modified pET-28a; The modified pET-28a carries a TEV protease cleavage site (ENLYFQ/G) with the N-terminal tandem His tags; no cleavage is described and the protein is detected with anti-His; also called Swip-1; source: E. coli BL21 (DE3), purified (Ni-NTA agarose); not shown: His tag (tandem), N-terminal, kept
B3: GST-tagged swiprosin-1 163–240 (domain or fragment, human, UniProt Q96C19 163-240, looked up)
chain: GELQEDSGLCVLARLSEIDVSSEGVKGAKSFFEAKVQAINVSSRFEEEIKAEQEERKKQAEEMKQRKAAFKELQSTFK
notes: swiprosin-1, human, residues 163–240 (C-terminal region with the coiled-coil domain), in pGEX-4T-1; also called 163–240 (h); source: E. coli BL21, purified (glutathione beads, eluted with glutathione)

For test [1], the target named is B2. In words: pull-down; GST pull-down: equal amounts of purified GST_Swip-1 (wild type or mutants) and His_Swip-1 with glutathione-Sepharose 4B beads, 2 h at 4°C, 50 mM Hepes pH 7.4, 150 mM NaCl, 1.5 mM MgCl2, 1% Triton X-100; blot with anti-His; also with or without 2 mM EGTA. Particulars: both partners purified.
Test [2] addresses T1, GST-tagged wild-type swiprosin-1. The description is as above. Conditions: both partners purified.

In the case of B1, the binding result in test [1] is given as “binds”. For B2, the binding result in test [2] was “binds”. With B3, the binding result in test [1] was “binds”.
